Data taken from US20070203071A1 (published 2007).
Non-standard residues stand in square brackets, D forms with d. No end group written: not given here. Bpa = N[C@@H](Cc1ccc(C(=O)c2ccccc2)cc1)C(=O)O; hArg = N=C(N)NCCCC[C@H](N)C(=O)O; Ac5c = NC1(C(=O)O)CCCC1; Deg = CCC(N)(CC)C(=O)O; desNH2 = X is (desNH2); Aib = CC(C)(N)C(=O)O

B1: Deg1,3,Bpa2 (peptide)
peptide: [Deg][Bpa][Deg]EIQLMHQ[hArg]AKW-NH2
modifications: N-terminus assumed
SMILES: CC[C@H](C)[C@H](NC(=O)[C@H](CCC(=O)O)NC(=O)C(CC)(CC)NC(=O)[C@H](Cc1ccc(C(=O)c2ccccc2)cc1)NC(=O)C(N)(CC)CC)C(=O)N[C@@H](CCC(N)=O)C(=O)N[C@@H](CC(C)C)C(=O)N[C@@H](CCSC)C(=O)N[C@@H](Cc1c[nH]cn1)C(=O)N[C@@H](CCC(N)=O)C(=O)N[C@@H](CCCCNC(=N)N)C(=O)N[C@@H](C)C(=O)N[C@@H](CCCCN)C(=O)N[C@@H](Cc1c[nH]c2ccccc12)C(N)=O
B2: parent (peptide)
peptide: [Ac5c]V[Aib]EIQLMHQ[hArg]AKW-NH2
modifications: N-terminus assumed
SMILES: CC[C@H](C)[C@H](NC(=O)[C@H](CCC(=O)O)NC(=O)C(C)(C)NC(=O)[C@@H](NC(=O)C1(N)CCCC1)C(C)C)C(=O)N[C@@H](CCC(N)=O)C(=O)N[C@@H](CC(C)C)C(=O)N[C@@H](CCSC)C(=O)N[C@@H](Cc1c[nH]cn1)C(=O)N[C@@H](CCC(N)=O)C(=O)N[C@@H](CCCCNC(=N)N)C(=O)N[C@@H](C)C(=O)N[C@@H](CCCCN)C(=O)N[C@@H](Cc1c[nH]c2ccccc12)C(N)=O
B3: Deg1,3 (peptide)
peptide: [Deg]V[Deg]EIQLMHQ[hArg]AKW-NH2
modifications: N-terminus assumed
SMILES: CC[C@H](C)[C@H](NC(=O)[C@H](CCC(=O)O)NC(=O)C(CC)(CC)NC(=O)[C@@H](NC(=O)C(N)(CC)CC)C(C)C)C(=O)N[C@@H](CCC(N)=O)C(=O)N[C@@H](CC(C)C)C(=O)N[C@@H](CCSC)C(=O)N[C@@H](Cc1c[nH]cn1)C(=O)N[C@@H](CCC(N)=O)C(=O)N[C@@H](CCCCNC(=N)N)C(=O)N[C@@H](C)C(=O)N[C@@H](CCCCN)C(=O)N[C@@H](Cc1c[nH]c2ccccc12)C(N)=O

These binders were tested against - (assay: competition binding, 125I-PTH(1-15) tracer, HKRK-B28 cells).

IC50 | Binder
840 nM | B1
1800 nM | desNH2-[Ac5c]V[Aib]EIQLMHQ[hArg]AKW-NH2 [desNH2-AC5C1]
30 nM | B2
230 nM | B3
